Assay [1] deals with GST-cyclin B/p33^cdc2.
The target in assay [2] is GST-cyclinA/p33^CDK2.
The target of assay [3] is chicken pp60^v-src (chicken).
Assay [4] concerns the target GST-c-abl.

This is an account of results in US6004757.

Where no end group is shown, it is not given here.

Sequence of GST-c-abl (P00519 whole entry): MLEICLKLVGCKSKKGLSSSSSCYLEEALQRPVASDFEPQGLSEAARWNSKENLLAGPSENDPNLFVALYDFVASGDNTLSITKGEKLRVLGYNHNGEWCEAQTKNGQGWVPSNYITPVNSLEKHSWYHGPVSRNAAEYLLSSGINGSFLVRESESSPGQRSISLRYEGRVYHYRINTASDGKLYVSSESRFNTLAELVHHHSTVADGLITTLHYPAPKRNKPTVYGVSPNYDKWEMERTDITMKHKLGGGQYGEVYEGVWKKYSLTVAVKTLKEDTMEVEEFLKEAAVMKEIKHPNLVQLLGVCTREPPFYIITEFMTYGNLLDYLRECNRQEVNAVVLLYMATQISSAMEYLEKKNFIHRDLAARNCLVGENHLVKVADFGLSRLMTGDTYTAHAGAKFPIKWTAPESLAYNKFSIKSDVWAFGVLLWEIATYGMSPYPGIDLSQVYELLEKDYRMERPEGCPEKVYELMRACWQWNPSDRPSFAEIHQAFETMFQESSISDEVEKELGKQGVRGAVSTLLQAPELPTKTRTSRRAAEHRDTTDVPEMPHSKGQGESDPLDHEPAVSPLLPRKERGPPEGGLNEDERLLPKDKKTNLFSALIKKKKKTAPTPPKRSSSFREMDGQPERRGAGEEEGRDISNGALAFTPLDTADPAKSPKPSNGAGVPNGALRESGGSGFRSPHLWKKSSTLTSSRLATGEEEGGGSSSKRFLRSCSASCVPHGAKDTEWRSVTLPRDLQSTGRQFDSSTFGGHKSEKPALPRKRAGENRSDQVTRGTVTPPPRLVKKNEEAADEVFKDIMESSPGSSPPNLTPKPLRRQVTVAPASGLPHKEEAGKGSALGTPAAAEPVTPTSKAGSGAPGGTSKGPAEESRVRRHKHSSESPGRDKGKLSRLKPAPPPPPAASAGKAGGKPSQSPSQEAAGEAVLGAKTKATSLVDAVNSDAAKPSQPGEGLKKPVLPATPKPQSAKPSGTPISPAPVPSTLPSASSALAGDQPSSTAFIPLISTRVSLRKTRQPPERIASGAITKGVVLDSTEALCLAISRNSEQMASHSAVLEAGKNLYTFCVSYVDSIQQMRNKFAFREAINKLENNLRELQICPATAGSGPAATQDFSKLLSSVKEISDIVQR

As to ARRPMSPKKKA [peptide Ala-Arg-Arg-Pro-Met-Ser-Pro-Lys-Lys-Lys-Ala], the Km (µM) of phosphorylation of the peptide by the kinase in assay [1] was found to be 2.4 µM; in assay [2], 15 µM.
IEKIGEGTYGVVYKGRHKTT (not fully specified) [synthetic peptide based upon the site of tyrosine phosphorylation on p33^cdc2 (Y15)]: the Km (µM) of phosphorylation of the peptide by the kinase in assay [3] came to 139 µM.
As for EAIYAAPFAKKK [synthetic abl optimal peptide …], the Km of phosphorylation of the peptide by the kinase in assay [4] was found to be 4 µM.
